Data from patent US20260042834A1 (HBM ALPHA THERAPEUTICS, published 2026).
Numbering of substitutions follows the chain as printed. Several values for one entry are separate records, joined by “and”; a condition that tells them apart may be missing. Equal values may be shown once. Read-outs that look alike come from different tables or passages of the source. Each block holds one binder with its values, some of them ahead of it.

Tests used:
Assay in all cases: cell-based or functional assay
[1] = biological target: T1, corticotropin-releasing hormone (CRH) peptide (human and mouse (same sequence), not fully specified)
T1 peptide: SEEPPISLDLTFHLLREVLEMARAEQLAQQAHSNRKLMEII

[2] = biological target: T1, corticotropin-releasing hormone (CRH) …
[3] = biological target: T1, corticotropin-releasing hormone (CRH) …

B1: PR302334 (antibody, human IgG1, kappa, V domains shown)
VH: EVKLVESGGGLVKPGGSLKLSCAASGFTFSTYAMSWVRQTPEKRLEWVASIRSGGTTYYPDSVKGRFTISRDNARNILYLQMSSLRSEDTAIYYCTRGIDWGQGTLVTVSA
VL: NIVMTQTPKFLLVSAGDRITITCKASQSVNNDVAWYQQKPGQSPKLLIYYASNRYTGVPDRFTGSGYGTDFTFTISTVQAEDLAVYFCQQDYSSWTFGGGTNLEIKR
hCRHR1 Luciferase Reporter Assay IC50 [1]: 260 pM and 644 pM
mCrhr1 Luciferase Reporter Assay IC50 [1]: 672 pM

B2: PR302334-2 (antibody, human IgG1, kappa, V domains shown)
VH: B1 VH
VL: EIVMTQSPATLSVSPGERATLSCKASQSVNNDVAWYQQKPGQAPRLLIYYASNRYTGIPARFSGSGSGTEFTLTISSLQSEDLAVYFCQQDYSSWTFGGGTKVEIKR
hCRHR1 Luciferase Reporter Assay IC50 [1]: 597 pM

B3: PR302334-4 (antibody, human IgG1, kappa, V domains shown)
VH: B1 VH
VL: DIVMTQSPDSLAVSLGERATINCKASQSVNNDVAWYQQKPGQPPRLLIYYASNRYTGVPDRFSGSGSGTDFTLTISSLQAEDLAVYFCQQDYSSWTFGGGTKVEIKR
hCRHR1 Luciferase Reporter Assay IC50 [1]: 553 pM

B5: PR302334-6 (antibody, human IgG1, kappa, V domains shown)
VH: B1 VH
VL: DIQMTQSSLSASVSLGDRVTITCKASQSVNNDVAWYQQKPGKAPRLLIYYASNRYTGVPSRFSGSGSGTDFTFTISSLQPEDLATYFCQQDYSSWTFGGGTKVEIKR
hCRHR1 Luciferase Reporter Assay IC50 [1]: 404 pM

B6: PR302334-3 (antibody, human IgG1, kappa, V domains shown)
VH: B1 VH
VL: B3 VL with L83V, F87Y
hCRHR1 Luciferase Reporter Assay IC50 [1]: 542 pM

B7: PR302334-14 (antibody, human IgG1, kappa, V domains shown)
VH: EVQLVESGGGLVQPGGSLRLSCAASGFTFSTYAMSWVRQAPGKGLEWVASIRSGGTTYYPDSVKGRFTISRDNSKNTLYLQMNSLRAEDTAVYYCTRGIDWGQGTTVTVSS
VL: B1 VL
hCRHR1 Luciferase Reporter Assay IC50 [1]: 468 pM

B8: PR302334-1 (antibody, human IgG1, kappa, V domains shown)
VH: B1 VH
VL: B2 VL with L83F, F87Y
hCRHR1 Luciferase Reporter Assay IC50 [1]: 624 pM

B9: PR302334-5 (antibody, human IgG1, kappa, V domains shown)
VH: B1 VH
VL: B5 VL with L83I, F87Y
hCRHR1 Luciferase Reporter Assay IC50 [1]: 325 pM

B11: PR302334-15 (antibody, human IgG1, kappa, V domains shown)
VH: B7 VH with Q13K, A49S, S74A, T77S, T96A
VL: B1 VL
hCRHR1 Luciferase Reporter Assay IC50 [1]: 5120 pM

B18: PR302334-7 (antibody, human IgG1, kappa, V domains shown)
VH: B7 VH
VL: B2 VL with L83F, F87Y
hCRHR1 Luciferase Reporter Assay IC50 [1]: 996 pM

B19: PR302334-8 (antibody, human IgG1, kappa, V domains shown)
VH: B7 VH
VL: B2 VL
hCRHR1 Luciferase Reporter Assay IC50 [1]: 816 pM
mCrhr1 Luciferase Reporter Assay IC50 [1]: 2610 pM

B20: PR302334-9 (antibody, human IgG1, kappa, V domains shown)
VH: B7 VH
VL: B3 VL with L83V, F87Y
hCRHR1 Luciferase Reporter Assay IC50 [1]: 1420 pM

B23: PR302334-11 (antibody, human IgG1, kappa, V domains shown)
VH: B7 VH
VL: B5 VL with L83I, F87Y
hCRHR1 Luciferase Reporter Assay IC50 [1]: 1000 pM

B25: PR302334-12 (antibody, human IgG1, kappa, V domains shown)
VH: B7 VH
VL: B5 VL
hCRHR1 Luciferase Reporter Assay IC50 [1]: 986 pM

B26: PR302334-10 (antibody, human IgG1, kappa, V domains shown)
VH: B7 VH
VL: B3 VL
hCRHR1 Luciferase Reporter Assay IC50 [1]: 839 pM
mCrhr1 Luciferase Reporter Assay IC50 [1]: 2660 pM

Further lines, results first:

hCRHR1 Luciferase Reporter Assay IC50 [1]: 339 pM
B4: PR302334-16 (antibody, human IgG1, kappa, V domains shown)
VH: B7 VH with Q13K, S74A, T77S
VL: B1 VL

hCRHR1 Luciferase Reporter Assay IC50 [1]: 12200 pM
B10: PR302334-17 (antibody, human IgG1, kappa, V domains shown)
VH: B7 VH with A49S, T77S, T96A
VL: B1 VL

hCRHR1 Luciferase Reporter Assay IC50 [1]: 279 pM
B12: PR302334-18 (antibody, human IgG1, kappa, V domains shown)
VH: B7 VH with T77S
VL: B1 VL

hCRHR1 Luciferase Reporter Assay IC50 [2]: 110 pM
mCrhr1 Luciferase Reporter Assay IC50 [2]: 290 pM
hCRHR1 Luciferase Reporter Assay IC50 [3]: 342 pM
mCrhr1 Luciferase Reporter Assay IC50 [3]: 1600 pM
B13: PR302341-10 (antibody, human IgG1, kappa, V domains shown)
VH: QVQLVQSGAEVKKPGASVKVSCKASGYTFTDYFMKWVRQAPGQGLEWMGVINPNNGDIFYNQKFKGRVTMTVDKSTSTAYMELSSLRSEDTAVYYCARGTDRALFAYWGQGTLVTVSS
VL: DVVMTQTPLSSPVTLGQPASISCRSGQSIVHSDGNTYLEWYQQRPGQPPRLLIYKVSNRFSGVPDRFSGSGAGTDFTLKISRVEAEDLGVYYCFQGSHIPWTFGGGTKVEIKR

hCRHR1 Luciferase Reporter Assay IC50 [2]: 192 pM
mCrhr1 Luciferase Reporter Assay IC50 [2]: 156 pM
B14: PR302341-24 (antibody, human IgG1, kappa, V domains shown)
VH: B13 VH with G44R, M70I, T76A
VL: B13 VL

hCRHR1 Luciferase Reporter Assay IC50 [2]: 711 pM
B15: PR302341-25 (antibody, human IgG1, kappa, V domains shown)
VH: B13 VH with G44R, M70I, T76A
VL: B13 VL with S11L, P12S, L15P, Q42L, R44K, P48S, R50Q, A72S

hCRHR1 Luciferase Reporter Assay IC50 [2]: 518 pM
B16: PR302341-27 (antibody, human IgG1, kappa, V domains shown)
VH: B13 VH with T76I, S85R, E89D
VL: B13 VL with S11L, P12S, L15P, Q42L, R44K, P48S, R50Q, A72S

hCRHR1 Luciferase Reporter Assay IC50 [2]: 273 pM
B17: PR302341-26 (antibody, human IgG1, kappa, V domains shown)
VH: B13 VH with T76I, S85R, E89D
VL: B13 VL

hCRHR1 Luciferase Reporter Assay IC50 [1]: 920 pM
B21: PR302334-22 (antibody, human IgG1, kappa, V domains shown)
VH: B7 VH with A49S, T77S, T96A
VL: B2 VL

hCRHR1 Luciferase Reporter Assay IC50 [1]: 1700 pM
B22: PR302334-25 (antibody, human IgG1, kappa, V domains shown)
VH: B7 VH with Q13K, S74A, T77S
VL: B5 VL

hCRHR1 Luciferase Reporter Assay IC50 [1]: 778 pM
mCrhr1 Luciferase Reporter Assay IC50 [1]: 1820 pM
B24: PR302334-24 (antibody, human IgG1, kappa, V domains shown)
VH: B7 VH with Q13K, S74A, T77S
VL: B3 VL

hCRHR1 Luciferase Reporter Assay IC50 [1]: 1100 pM
mCrhr1 Luciferase Reporter Assay IC50 [1]: 1340 pM
B27: PR302334-26 (antibody, human IgG1, kappa, V domains shown)
VH: B7 VH with T77S
VL: B3 VL

mCrhr1 Luciferase Reporter Assay IC50 [2]: 611 pM
hCRHR1 Luciferase Reporter Assay IC50 [3]: 437 pM
mCrhr1 Luciferase Reporter Assay IC50 [3]: 1700 pM
B28: PR302341 (antibody, human IgG1, kappa, V domains shown)
VH: EVQLQQSGPELVKPGASVKMSCKASGYTFTDYFMKWVKQSHGESLEWIGVINPNNGDIFYNQKFKGKATLTVDKSSSTAFMQLNSLTSEDSAVYSCARGTDRALFAYWGQGTLVAVSA
VL: DVLMTQTPLSLPVSLGDQASISCRSGQSIVHSDGNTYLEWYLQRPGQSPRLLIYKVSNRFSGVPDRFSGSGSGTDFTLKISRVGAEDLGIYYCFQGSHIPWTFGGGTKLEVKR

hCRHR1 Luciferase Reporter Assay IC50 [2]: 162 pM
mCrhr1 Luciferase Reporter Assay IC50 [2]: 451 pM
hCRHR1 Luciferase Reporter Assay IC50 [3]: 188 pM
mCrhr1 Luciferase Reporter Assay IC50 [3]: 1620 pM
B29: PR302341-20 (antibody, human IgG1, kappa, V domains shown)
VH: B13 VH with G44R, M70I, V72R, K74T, T76A
VL: B13 VL with T7S, S11L, P48S, A72S

hCRHR1 Luciferase Reporter Assay IC50 [2]: 243 pM
B30: PR302341-22 (antibody, human IgG1, kappa, V domains shown)
VH: B13 VH with V72R, K74T, T76I, S85R, E89D
VL: B13 VL with T7S, S11L, P48S, A72S

hCRHR1 Luciferase Reporter Assay IC50 [2]: 43 pM
mCrhr1 Luciferase Reporter Assay IC50 [2]: 111 pM
hCRHR1 Luciferase Reporter Assay IC50 [3]: 351 pM
mCrhr1 Luciferase Reporter Assay IC50 [3]: 1190 pM
B31: PR302341-23 (antibody, human IgG1, kappa, V domains shown)
VH: B13 VH with T76I, S85R, E89D
VL: B13 VL with T7S, S11L, P48S, A72S
